Laboratory results as given in patent US7173007.

System: recombinant human cathelin-like protein (cathelin-like domain of hCAP18, residues 31-131), after removal of the N-terminal tag with enterokinase
Sequence (chain, as listed by the source): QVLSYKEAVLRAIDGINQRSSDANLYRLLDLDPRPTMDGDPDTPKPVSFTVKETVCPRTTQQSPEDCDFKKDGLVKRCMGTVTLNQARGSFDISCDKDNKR

Sequence of human liver cathepsin L (Calbiochem) (chain, as listed by the source): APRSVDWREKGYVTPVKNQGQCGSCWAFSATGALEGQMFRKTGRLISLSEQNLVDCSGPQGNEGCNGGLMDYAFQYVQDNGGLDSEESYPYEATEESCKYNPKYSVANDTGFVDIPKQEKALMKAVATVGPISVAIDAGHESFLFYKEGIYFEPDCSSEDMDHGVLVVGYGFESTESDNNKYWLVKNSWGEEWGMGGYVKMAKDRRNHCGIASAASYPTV

## human liver cathepsin L (Calbiochem)
  hydrolysis of Z-Phe-Arg-AMC by cathepsin L alone and with cathelin-like protein: Data demonstrate inhibition of cathepsin L by the addition of cathelin-like recombinant protein
  slope of fluorescence generation (Z-Phe-Arg-AMC hydrolysis) with cathelin-like protein; cathepsin L alone gave 1.31: slope=1.31 vs 0.71, respectively
